Assay [1] has as its target cynomolgus CD3 antigen on cynomolgus PBMC / macaque T cells (Macaca fascicularis (cynomolgus), UniProt Q95LI5 22-117; Q95LI7 23-110; Q95LI8 22-103). Kind of assay: cell-based or functional assay.
Assay [2] has as its target T1, human EpCAM antigen on Kato III cells or human EpCAM transfected CHO cells (human, UniProt P16422 24-265).
T1 sequence: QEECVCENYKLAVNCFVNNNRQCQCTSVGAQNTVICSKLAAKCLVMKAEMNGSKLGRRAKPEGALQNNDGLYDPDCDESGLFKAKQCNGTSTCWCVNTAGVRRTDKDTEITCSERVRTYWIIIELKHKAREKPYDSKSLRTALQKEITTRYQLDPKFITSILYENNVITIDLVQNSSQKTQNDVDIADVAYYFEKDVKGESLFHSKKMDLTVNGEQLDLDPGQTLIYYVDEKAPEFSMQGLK
Briefly: cell-based or functional assay.

In assay [3] the target is T2, cynomolgus EpCAM antigen on transfected CHO cells (cynomolgus, UniProt Q1WER1 24-265 (rhesus entry)).
T2 construct: 48 holds the extracellular portion
T2 sequence: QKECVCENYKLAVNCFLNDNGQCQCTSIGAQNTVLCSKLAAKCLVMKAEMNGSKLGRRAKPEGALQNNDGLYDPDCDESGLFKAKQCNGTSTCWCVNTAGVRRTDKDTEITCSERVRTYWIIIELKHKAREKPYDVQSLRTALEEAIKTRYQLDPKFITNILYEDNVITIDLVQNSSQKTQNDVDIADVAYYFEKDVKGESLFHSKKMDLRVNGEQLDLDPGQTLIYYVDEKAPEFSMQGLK
Kind of assay: FACS on cynomolgus EpCAM transfected CHO cells, anti-His detection. An excerpt: FIG. 8: FACS assay for binding of 2G8LH×SEQ ID NO. 12, 2G8LH×SEQ ID NO. 10, 2G8LH×SEQ ID NO. 16, 2G8LH×SEQ ID NO. 14, 2G8HL×SEQ ID NO. 12, 2G8HL×SEQ ID NO. 10, 2G8HL×SEQ ID NO. 16 and 2G8HL×SEQ ID NO. 14 on Kato III (FIG. 8A) cells or cynomolgus EpCAM transfected CHO cells (FIG. 8B) and HPB-ALL cells. Antigen binding was clearly detectable for the anti EpCAM specificities as well as for the anti CD3 specificities. As a negative control for binding to cynomolgus EpCAM, the 5-10LH×SEQ ID NO.
Binding of the bifunctional constructs from cell culture supernatants or binding of purified bifunctional constructs to the human EpCAM antigen on Kato III cells or cynomolgus EpCAM transfected CHO cells and to the CD3 antigen on HPB-ALL cells was tested using an FACS assay. For that purpose 2.5×10⁵ cells were incubated with 50 μl supernatant or with 5 μg/ml of the purified constructs in 50 μl PBS with 2% FCS. The binding of the constructs was detected with an anti-His antibody (Penta-His Antibody, BSA free, obtained from Qiagen GmbH, Hilden, FRG) at 2 μg/ml in 50 μl PBS with 2% FCS. […] The samples were measured on a FACSscan (BD biosciences, Heidelberg, FRG). Antigen binding was clearly detectable for the anti EpCAM specificities as well as for the anti CD3 specificities (see FIG. 8). As a negative control for binding to cynomolgus EpCAM, the 5-10LH×SEQ ID NO. […] The 5-10LH part only binds to human EpCAM.

The target of assay [4] is T3, human CD3 antigen on HPB-ALL cells or human T cells (human, UniProt P07766 22-126; P09693 23-111; P04234 22-103).
T3 construct: natural CD3 complex on cells (HPB-ALL, human PBMC T cells); also called human CD3 complex
Kind of assay: FACS, FITC-conjugated antibody on HPB-ALL cells. On the procedure:
Binding of an Ig comprising SEQ ID NOs. 2 and 4, an Ig comprising SEQ ID NOs. 6 and 8 and mAb FN18 to the cynomolgus CD3 antigen on cynomolgus PBMC and to the human CD3 antigen on HPB-ALL cells (DSMZ No. ACC 483) was tested using an FACS assay. For that purpose, 2.5×10⁵ cells were incubated with the FITC-conjugated Ig comprising SEQ ID NOs. 6 and 8 and the FITC-conjugated Ig comprising SEQ ID NOs. 2 and 4 diluted 1:25 in 50 μl PBS with 2% FCS, respectively. The incubation with the FITC-conjugated mAb FN18 antibody (Biosource International) was performed in 50 μl of undiluted antibody. The samples were measured on a FACSscan (BD biosciences, Heidelberg, FRG). Strong antigen binding on human as well as on cynomolgus cells was detected for the Ig comprising SEQ ID NOs. 2 and 4. For the Ig comprising SEQ ID NOs. 6 and 8, strong binding to human cells but weaker binding to cynomolgus cells was observed. For FN18, strong binding to cynomolgus cells could be observed whereas no binding to human cells could be detected.

This is an account of results in US20090252683A1 (Amgen, published 2009).

cynomolgus CD3 antigen on cynomolgus PBMC / macaque T cells, sequence (Q95LI5 22-117, chain 1 of 3): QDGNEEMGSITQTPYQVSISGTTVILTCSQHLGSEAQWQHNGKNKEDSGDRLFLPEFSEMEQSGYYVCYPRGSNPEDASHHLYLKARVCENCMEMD
cynomolgus CD3 antigen on cynomolgus PBMC / macaque T cells, sequence (Q95LI7 23-110, chain 2 of 3): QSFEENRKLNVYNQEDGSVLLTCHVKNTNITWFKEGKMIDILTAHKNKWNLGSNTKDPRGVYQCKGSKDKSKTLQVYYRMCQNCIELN
cynomolgus CD3 antigen on cynomolgus PBMC / macaque T cells, sequence (Q95LI8 22-103, chain 3 of 3): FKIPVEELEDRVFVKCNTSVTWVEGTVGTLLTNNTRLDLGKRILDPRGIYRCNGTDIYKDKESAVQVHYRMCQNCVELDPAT
T3 sequence (P07766 22-126 limits assumed, chain 1 of 3): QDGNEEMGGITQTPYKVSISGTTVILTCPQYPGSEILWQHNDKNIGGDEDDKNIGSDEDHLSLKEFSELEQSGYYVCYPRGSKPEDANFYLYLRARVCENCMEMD
T3 sequence (P09693 23-111 limits assumed, chain 2 of 3): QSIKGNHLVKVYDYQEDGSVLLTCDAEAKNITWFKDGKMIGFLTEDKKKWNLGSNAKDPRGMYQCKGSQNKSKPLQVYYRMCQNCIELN
T3 sequence (P04234 22-103 limits assumed, chain 3 of 3): as the sequence (Q95LI8 22-103, chain 3 of 3) above, with V5I, K15N, V20I, T32S, N33D, N34I, A64T, N74S counted along it

B1: 5-10LH×SEQ ID NO. 10 bispecific single chain antibody (bispecific antibody)
chain: ELVMTQSPSSLTVTAGEKVTMSCKSSQSLLNSGNQKNYLTWYQQKPGQPPKLLIYWASTRESGVPDRFTGSGSGTDFTLTISSVQAEDLAVYYCQNDYSYPLTFGAGTKLEIKGGGGSGGGGSGGGGSEVQLLEQSGAELVRPGTSVKISCKASGYAFTNYWLGWVKQRPGHGLEWIGDIFPGSGNIHYNEKFKGKATLTADKSSSTAYMQLSSLTFEDSAVYFCARLRNWDEPMDYWGQGTTVTVSSGGGGSEVKLLESGGGLVQPKGSLKLSCAASGFTFNTYAMNWVRQAPGKGLEWVARIRSKYNNYATYYADSVKDRFTISRDDSQSILYLQMNNLKTEDTAMYYCVRHGNFGNSYVSWFAYWGQGTLVTVSAGGGGSGGGGSGGGGSQAVVTQESALTTSPGETVTLTCRSSTGAVTTSNYANWVQEKPDHLFTGLIGGTNKRAPGVPARFSGSLIGDKAALTITGAQTEDEAIYFCALWYSNLWVFGGGTKLTVLHHHHHH
B1: the “EC50 (half maximal killing), FACS-based cytotoxicity, Kato III target cells, cynomolgus PBMC effector cells” value in assay [1] was 0.052 ng/mL. Also, the “EC50 (half maximal killing), FACS-based cytotoxicity, Kato III target cells, human PBMC effector cells” value in assay [2] stood at 0.0058 ng/mL. Further, the binding result in assay [3] is “no binding (tested: 50 µl supernatant or 5 µg/ml)”.

B2: monoclonal antibody (mAb) FN-18 (antibody, V domains shown)
VH: QVQLQQSEAELARPGASVKMSCKASGYTFTDYTIHWLKQRPGQGLDWIGYFNPSSESTEYNRKFKDRTILTADRSSTTAYMQLSSLTSEDSAVYYCSRKGEKLLGNRYWYFDVWGAGTSVTVSS
VL: DIVMSQSPSSLAVSVGEKVTMSCKSSQSLLYSSNQKNYLAWYQQKPGQSPKLLINWASTRESGVPDRFTGSGSRTDFTLTISSVKAEDLAVYFCQQFYSYPPTFGGGTKLEIK
notes: tested as bought FITC-conjugated antibody (Biosource International)
As to B2, the binding result in assay [4] is on record as “no binding (tested: 50 µl of undiluted antibody)”.
